Assay results taken from the RNAGym collection of RNA variant scans (doi:10.1073/pnas.2313332121).

B1: TPR t1 (parent)
chain: GACCAAUCUGCCCUCAGAGCUCGAGAACAUCUUCGGAUGCAGAGGAGGCAGGCUUCGGUGGCGCGAUAGCGCCAACGUCCUCAACCUCCAAUGCAUCCCACCACAUGAUGAUGCCUGAAGAGCCUUGGUUUUUUG

Variants of: B1
Test: polymerase ribozyme fitness, log enrichment relative to wild type (log ratio); higher = more active; in vitro selection for triplet polymerase activity
Outline: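 Mutant libraries for each subunit of a heterodimeric triplet polymerase ribozyme were made by PCR and then transcribed. Each library underwent one round of in vitro selection in triplicate: annealing with a biotinylated primer, the partner subunit and triplets, frozen incubation at −7 °C, gel excision of extended constructs, streptavidin-bead capture and RT-PCR. Input and output libraries were Illumina-sequenced, and only genotypes with ≥10 input reads and ≥1 read per output were kept. Fitness is the logarithm, base 2, of genotype enrichment over wild-type enrichment, computed from inverse-variance-weighted replicate averages.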

Row | Variant | polymerase ribozyme fitness (log ratio)
1 | A74U C98A C99A | -6.51
2 | G60A U109A U133G | -5.4
3 | C89U U96C | -0.473
4 | U21A G63U | -1.92
5 | U54A C73A C88A | -0.61
6 | C73A G107A | -5.21
7 | U9A G48C C72U U78C C86A C101A C114U C124U | -3.88
8 | U7A C12U A46U G58A | -0.311
9 | G93C G120A | 1.58
10 | U14C A26G A50G G52C U106C G117A | -5.87
11 | G61C A100U | -2.98
12 | G44U G61A | -1.47
13 | G48U U130C U133A | -0.9
14 | A66C G69C C97G C101A G107A U112G U130G | -6.88
15 | C22G C53U | -4.09
16 | A91C U96A A103U | -7.59
17 | C49U A119U G122U | -1.11
18 | C86U U96A U106G | -4.25
19 | C94A G127U | -1.5
20 | U54A C62U U96G | -0.523
21 | C8A G35C G63A C98A | -6.69
22 | A24G U78C C114U C115A | -5.31
23 | G52U C73U C104G C115A | -6.56
24 | C3U C40U C62U A75U G93C U96G | -3.29

Row | Variant | polymerase ribozyme fitness (log ratio)
25 | G47C C56G | -1.79
26 | C4A U87C G120A G127A | -0.66
27 | C72U A121C | 1.6
28 | C80A G93U G120C | -4.31
29 | A26U U38A | -4.53
30 | U55G C72U C88G | -1.33
31 | A37C G93U A111G | -2.63
32 | C31G C114A | -6.73
33 | G57C G93U A111U G113C C114A C115U U125A | -7.73
34 | C12A U78A A119U | -0.914
35 | C3G G61U C104A | -3.47
36 | G23A G36C | -6.17
37 | G19U U59G U106G U112A | -2.43
38 | C8U U9C C12U G17A G19A G44U C114G | -5.67
39 | C11G U33C G63A C99U A111C | -7.29
40 | A46U C56G U78G C85U | -1.84
41 | C12A C53G U54C A121C | 1.77
42 | A27G A103U U112A U130C | -5.43
43 | C85A C88U | -2.64
44 | C56U C79U G113C | -2.44
45 | C15G A18U G63C A91C | -4.66
46 | G19U G42C | -3.93
47 | U9G A37U G42C C86A U112A | -2.41
48 | U54A A74U C124G | 0.443

Row | Variant | polymerase ribozyme fitness (log ratio)
49 | C12U C15U U21G C101A | -3.11
50 | A41G G69C G117U | -4.65
51 | G35U G65U A121G | -5.82
52 | G47A G113U C114A A121G | -1.76
53 | C76G A118G G122U | -0.593
54 | G10U C12A C56A C72A C82A | -1.27
55 | G47U C79U | -1.85
56 | C12U A84C C102A | -1.99
57 | A37C G110C C124A U133A | -3.68
58 | C62A C72G G120U U129G | -3.88
59 | G39A A46U G61A U129A | -2.38
60 | A18U A26G G71U G120A G127U | -5.55
61 | G60A C80U C89U | -2.13
62 | G42A G45C C123U | -1.9
63 | G60U G128A | -1.69
64 | U30C A41G U78A A91G A108G | -2.61
65 | G63A C98G G117C G128A U133C | -5.29
66 | U55G U132C | -0.153
67 | C76G U78A | 0.247
68 | C70G C79U | -3.08
69 | G45U U129G | -2.58
70 | C12A C80U A84U C89U A119G C123A | 0.231
71 | A18U C40U G113A G117A | -6
72 | G63A C104U G120A G127A | -0.508

Row | Variant | polymerase ribozyme fitness (log ratio)
73 | C11A C49U G93A U129A | -3.29
74 | C8A U9G A41G G69U | -0.102
75 | C4U G48C G69C C101G | -4.61
76 | C12U G44A | -0.615
77 | U33A C49U C73U | -5.84
78 | C8G U9G G10U | -0.244
79 | A111C U112A | -1.52
80 | G71A G135A | -1.21
81 | G10C C49G U81C G120C | -4.69
82 | C15U G52A | -1.6
83 | A37C G45C A111G | -2.91
84 | G45A G69U U112A | 1.62
85 | A5U U14C A18U G45U G71U A121C | -5.73
86 | C40A C114A G135A | -3.46
87 | C12A C22G G36U U116C G120U | -3.27
88 | C11U C53A G69U G93C C94U | -0.279
89 | C76U U129G | -0.833
90 | A18C U38A C115A U116G C123U U126A | -4.52
91 | G35C A46C A118U C123G | -4.04
92 | C64G C123U | -3.63
93 | C49U A68G | -4.08
94 | A37U G51A A100C U112A | -5.37
95 | C20A A43U | -3.83
96 | G42A U116A | -3.72

Row | Variant | polymerase ribozyme fitness (log ratio)
97 | U78C G93A C101U C123U | -0.0122
98 | C4A G60U G127A | -2.51
99 | G93A G110A | -1.24
100 | U54G U87C U92G | -2.64
101 | C12A A27U | -3.57
102 | A29U A37U G44C C72G C114U | -4.21
103 | C13G U33C C72U U81A C101G G110U U132A | -6.08
104 | U7C C53U G71A U92G C114U | -2.79
105 | U7G U21A A26G G47U C123U U129A U133G | -3.24
106 | A5U C56U | -0.648
107 | C64U C79U U106A U109A | -5.15
108 | C8U C94U | 0.9
109 | A2C U33A G60A G71U C115U | -6.78
110 | C3A C15G C72G G117C A119U | -0.76
111 | G44U G45U G60C C72U C101U A121G U131C | -0.75
112 | C4U G60U U92A U96C | -3.48
113 | A46C C79U C101U G113U | -4.4
114 | G39C G48U A75U | -1.28
115 | U38A C53G C56U G110A | -2.64
116 | C13A C64U C115A | -2.72
117 | C13G C124A G128U | -0.0372
118 | C73U C97A | -3.58
119 | C4A U32C G69U G113A | -2.74
120 | G52A A68G G93A | -5.07

Row | Variant | polymerase ribozyme fitness (log ratio)
121 | G47A C56U U112A | 0.663
122 | U106A U112A U129C | 0.363
123 | C13G U59A | -1.41
124 | A6U A46C | -0.0914
125 | G19A C49G C85U A111C | -2.99
126 | G71A C86A | -1.85
127 | C11G U32A G48U C64A C73U U96A C123A | -7.31
128 | C22G C49U G110C | -5.9
129 | C4U A50G C62U G110A | -1.24
130 | C13G A118U | -1.02
131 | A24G C64U U96G A111C | -3.27
132 | U78G U112G | 1.33
133 | U14A A29U | -3.64
134 | U7G G61U C82G A91C U112C | 0.65
135 | C20U A27U C64U G113A | -3.6
136 | C34A U59A C124A | -0.848
137 | G63U C79A G110U | -5.14
138 | C13U U78A C79A U129G | -3.68
139 | G61C C79G U92A G117U | -6.69
140 | U116G G120U | -2.52
141 | A27G G51U G61A G127C | -6.98
142 | A5C C13U C70U A84C U131A | -1.24
143 | C72A U112A | 1.59
144 | G52U A121C G127A | -0.484

Row | Variant | polymerase ribozyme fitness (log ratio)
145 | U87C U129C | -0.143
146 | C4A G63A A83U A118G | -3.12
147 | G44A C72A G110A G122A C124A | -3.56
148 | C11A C40A G52A U92A | -3.14
149 | G127C | -1.03
150 | G127A | -1.25
151 | G48U G71U | -1.01
152 | A6G C123A | 1.64
153 | C3A A26U | -4.19
154 | C12U A26U | -2.07
155 | C34A G120C | -1.97
156 | U7C C40A U109A U129A | -6.42
157 | C56U A91C | -1.17
158 | G10A C70U | -0.224
159 | U7C U14A C22U G47U C56G G60A G120U | -7.5
160 | A83C G113C | -2.78
161 | U7C A27G G69C | -2.37
162 | C70U C97A C102G U109G G117A | -6.26
163 | C20G C76A | -4.94
164 | G10A A18U C70G G77A U87A C115A | -7.14
165 | A84G G93U G120U | -2.23
166 | G23A U112A | -4.45
167 | G25C G47U C64G U109A U133C | -6.25
